Here are results for 9 molecules from patent publication US20230303681A1 (published 2023).

Numbering of substitutions follows the chain as printed. Where “and” joins values, the source holds several entries; their conditions need not be identical. Equal values may be shown once.

The chains are these.
B1: anti-TMEM106B antibody TM-44 (antibody, V domains shown)
VH: EVQLVESGGGLVKPGGSLKLSCAASGFTFSDYGMHWVRQAPEKGLEWVAYISSGSSTIYYADTVKGRFTISRDNAKNTLFLQMTSLRSEDTAMYYCARNYGSPYAMDYWGQGTSVTVSS
VL: not shown
notes: mouse IgG from hybridoma
B2: anti-TMEM106B antibody TM-17 (antibody, V domains shown)
VH: QVQLQQSGAELIRPGTSVKVSCKASGYAFTDYLIEWVKQRPGQGLEWIGVINPGSGGTNYNEKFKGKAKLTADKSSSTAYMQLSSLTSEDSAVYFCVRSSYGVYVAYPMDYWGQGTSVTVSS
VL: DIQMTQSPSSLSASLGERVSLTCRASQDIGSNLNWLQQEPDGTIKRLIYATSSLDSGVPKRFSGSRSGSDYSLTISSLESEDFVDYYCLQYASSPRTFGGGTKLEIK
B3: anti-TMEM106B antibody TM-11 (antibody, V domains shown)
VH: QVQLKQSGPGQVQPSQSLSITCTVSGFSLSDYGVHWVRQSPGKGLEWLGVIWNNGNTDYNAAFISRLSINKDNSKSQVFFKMTSLQADDTAIYYCVRSLRPLHFDYWGQGTTVTVSS
VL: DIVMTQSPSSLTMSVGQKVTMHCKSSQSLLNSNNLQNYLAWYQQKPGQSPTLLVYFASIRESGVPDRFIGSGSGTDFTLTISSVQAEDLADYFCQQHYNTPFTFGSGTKLEIR
B4: anti-TMEM106B antibody TM-16 (antibody, V domains shown)
VH: EVQLQQSGAELVRPGASVKLSCTTSGFNIKDYYMHWVKQRTEQGLEWIGRIDPEDGETKYAPEFQGKATITSDTSSNTAFLQLSSLTSEDTAVYYCASSQPFTYWGQGTLVTVSA
VL: QIVLTQSPAIMSASPGEKLTMTCSASSSLNYMYWYQQKPGSSPRLLIYDTSNLASGVPVRFSGSGSGTSYSLTISRMEAEDGATYYCQQWTSFPPTFGAGTKLELK
B5: anti-TMEM106B antibody TM-10 (antibody, V domains shown)
VH: QVQLQQSGAELVKPGASVKISCKGSGYAFSSYWMNWVKQRPGKGLEWIGQIYPGDGDTNYNGKFKGKATLTADKSSTTAYIHLSSLTSEDSAVYFCARWGHYDEAMDDWGQGTSVTVSS
VL: DVVMTQTPLSLPVSLGDQASISCRSSQSLVHSNGKTYLHWYVQKPGQSPKLLIYKISNRFSGVPDRFSGSGSGTDFTLKISRVEAEDLGVYFCSQITHVPWTFGGGTKLESK
B6: anti-TMEM106B antibody TM-30 (antibody, V domains shown)
VH: QVQLQQSGPELVKPGASVKLSCKASDNTFTNYDVNWVRQRPGQGLEWIGWIYPRDGTTIYNEKFKGRATLTVDTSSSTAYMELHSLTSEDSAVFFCARTLPQAMDYWGQGTSVTVSS
VL: DVLMTQSPLSLPVSLGDQVSISCRSSQTIVHRNGNTYLEWYLQKPGQSPKLLIYKVSNRFSGVPDRFSGSGSGTDFTLKISRVEAEDLGVYYCFQGSHLPWTFGGGTKLEIK
notes: mouse IgG from hybridoma
B7: anti-TMEM106B antibody TM-32 (antibody, V domains shown)
VH: EVQLQQSGAELVRPGASVRLSCIASGFNIKDYYMYWVKQRPEQGLEWIGRIDPEDGDTEYVPKFQGKATMTADTSSNTAYLQLSSLTSEDIGVYYCTTRTWDLYYAVDNWGQGTSVTVSS
VL: B6 VL with S7T, V19A, T28N, R32S, Y54D, V90I, L99V, W101F, G105S
B8: anti-TMEM106B antibody TM-24 (antibody, V domains shown)
VH: B3 VH
VL: B3 VL with H22N, L35Q, T51K, S82N, N99S
notes: mouse IgG from hybridoma
B9: anti-TMEM106B antibody TM-20 (antibody, V domains shown)
VH: B4 VH
VL: B4 VL with S62R
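Wherever fold over negative controls is given: hybridoma supernatants incubated 30 min on ice with human TMEM106B-expressing HEK293 cells, binding read as anti-mouse-APC median fluorescence on live cells, relative to secondary-antibody-only wells.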
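Wherever fold-change over parental HEK293 is given: flow cytometry binding of hybridoma supernatants to HEK293 cells transiently expressing human, cyno or mouse TMEM106B, read as anti-mouse-APC median fluorescence, live cells only, 30 min on ice.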
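Wherever result is given: ELISA on plates coated with GST alone at 1-10 µg/ml, antibodies applied at 100-1000x dilution, bound antibody detected by peroxidase substrate colour after acid stop.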

The first test concerns the target T1, human TMEM106B (human, UniProt Q9NUM4 2-274).
T1 construct: Full-length, on transiently transfected HEK293 cells, or natively expressed on HeLa, U251 and A549 cells; also called huTMEM106B; huTMEM
The test can be described thus: FACS HeLa.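 Further: flow cytometry of cells incubated with hybridoma supernatant or purified antibody at 10 µg/ml for 1 h on ice, propidium iodide–positive dead cells gated out.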
In the case of B1, the MFI amounted to 168.

The molecule B2 showed an MFI of 437.

Molecule B3 registered an MFI of 1870.

The molecule B4 gave an MFI of 548.

B5 yielded an MFI of 596.

The next test concerns the target T1, human TMEM106B. The test can be described thus: FACS HEK+huTMEM, 1.0 ug/ml.
The molecule B6 returned an MFI of 63500.

On to B7, for which the MFI was determined as 63300.

Molecule B1 had an MFI of 337.

Consider B2, for which the MFI is 2620.

B3 yielded an MFI of 54600.

B8 yielded an MFI of 64500.

For the molecule B4, the MFI was determined as 2140.

In turn, B5 had an MFI of 44400.

The next test deals with T1, human TMEM106B. The test can be described thus: FACS HEK+huTMEM, 0.1 ug/ml.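 Further: flow cytometry binding of purified mouse IgG antibodies to HEK293 cells transiently expressing TMEM106B, read as median fluorescence intensity with propidium iodide positive dead cells gated out.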
Procedure: Purified anti-TMEM106B antibodies were evaluated for their binding affinity to various TMEM106B-expressing cell lines including HEK293 transiently transfected with human/cyno/mouse TMEM106B, as well as HeLa cells and A549 cells. Antibodies tested for this experiment were mouse IgGs purified from hybridoma supernatant. Affinity binding to cells was determined as follows. Briefly, 1x10^5 cells were aliquoted per well in 96-well round bottom plates and incubated with 50 µL of purified anti-TMEM106B antibody at various concentrations (10x dilutions starting at 10 µg/ml) in FACS buffer (PBS + 2% FBS + 1 mM EDTA). […] Sorting was performed on a iQue (Intellicyt), with sort gates drawn to exclude dead (propidium iodide +) cells. Binding data was analyzed using median fluorescent intensity (MFI) and graphed in Prism. Values presented are MFI.
B6 came in with an MFI of 18400.

In the case of B7, the MFI came out at 20300.

As for B1, the MFI is 309.

In turn, B2 showed an MFI of 1910.

For the molecule B3, the MFI was 16200.

The molecule B8 showed an MFI of 22000.

As to B4, the MFI was 680.

B5 registered an MFI of 21000.

A further test has as its target T1, human TMEM106B. The test can be described thus: FACS A549.
Procedure: (§1) All cells were cultured in either T75 or T150 flasks. […] The enzyme was quenched by addition of fresh media, and the cells were then distributed into 96-well plates for FACS analysis.
(§2) FACS analysis was performed as follows. Each cell type was aliquoted in 96-well round bottom plates (2x10^5 cells per well), washed once with FACS buffer (PBS + 2% FBS + 1 mM EDTA), and incubated with 50 µL of hybridoma supernatant or purified antibody (10 µg/ml in FACS buffer) on ice for 1 hour. […] Following this secondary incubation, the cells were again washed 2x with ice-cold FACS buffer and resuspended in a final volume of 50 µL of FACS buffer + 0.25 µl/well propidium iodide (Fisher Scientific # BDB556463). Analysis was performed on a FACSCanto system (BD Biosciences) or iQue (Intellicyt), with sort gates drawn to exclude dead (i.e., propidium iodide positive) cells.
(§3) Data is presented as mean fluorescence intensity (MFI).
B1: the MFI amounted to 392.

With B2, the MFI came to 953.

As for B3, the MFI came to 1340.

As to B4, the MFI turned out to be 605.

In turn, B5 came in with an MFI of 823.

For another test, the target named is T1, human TMEM106B. The test can be described thus: FACS, HEK293 transfectants. Background: In flow cytometry, cells or beads pass a laser one at a time.
Procedure: Initial screening of the anti-TMEM106B hybridomas was performed as follows.
For screening of the hybridoma cell culture supernatants, humanTMEM106B-transfected HEK293 cells were aliquoted in 96-well round bottom plates (2x10^5 cells per well) and incubated with 50 µL of hybridoma cell culture supernatant on ice for 30 minutes. […] Cell sorting was performed on a FACS Canto system (BD Biosciences) or iQue (Intellicyt), with sort gates drawn to exclude dead (i.e., propidium iodide-positive) cells. Median fluorescence intensity (MFI) of anti-mouse-APC MFI on TMEM106B+ HEK293 cells was calculated for each clone, and those displaying a signal of at least 2-fold over background compared to a secondary-antibody only well were taken forward for further analysis and characterization.
As for B6, the “fold over negative controls” value is above 2 fold.

B7: the “fold over negative controls” value is above 2 fold.

With B2, the “fold over negative controls” value is above 2 fold.

With B3, the “fold over negative controls” value is above 2 fold.

Regarding B8, the “fold over negative controls” value was above 2 fold.

With B4, the “fold over negative controls” value is above 2 fold.

In the case of B5, the “fold over negative controls” value is above 2 fold.

A further test deals with T1, human TMEM106B. The test can be described thus: FACS U251.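 Further: flow cytometry of cells exposed to antibody (purified at 10 µg/mL, or hybridoma supernatant) for 1 h on ice, with propidium iodide-positive dead cells gated out.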
Procedure: as §1, §2, §3
On to B1, for which the MFI turned out to be 522.

Molecule B2 gave an MFI of 305.

Molecule B3 returned an MFI of 866.

B4 returned an MFI of 292.

B5 registered an MFI of 328.

Another test concerns the target T1, human TMEM106B. The test can be described thus: FACS HEK+huTMEM, 0.01 ug/ml.
As to B6, the MFI came out at 3070.

B7: the MFI is 4100.

Turning to B1, the MFI was 300.

On to B2, for which the MFI amounted to 1150.

As to B3, the MFI came out at 4280.

Consider B8, for which the MFI was 3620.

B4 came in with an MFI of 351.

As to B5, the MFI came to 3360.

Another test addresses T1, human TMEM106B. The test can be described thus: FACS HEK+huTMEM, 10 ug/ml.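 Further: purified mouse IgG antibodies at 10 µg/ml bound to HEK293 cells transiently expressing human TMEM106B, measured by flow cytometry as median fluorescence intensity of propidium iodide negative live cells.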
Turning to B6, the MFI turned out to be 61500.

Molecule B7 displayed an MFI of 61100.

B1: the MFI was 512.

As to B2, the MFI turned out to be 3960.

In the case of B3, the MFI was 57900.

B8 yielded an MFI of 66300.

B4 showed an MFI of 5980.

In turn, B5 returned an MFI of 36500.

The target of a further test is T2, GST-fusion human TMEM106B truncated (human).
T2 construct: also called GST-TMEM106B-truncated protein; GST-TMEM106B (truncated)
The test can be described thus: array SPR, Ab immobilised.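 Further: antibodies amine-coupled on an MX-96 chip, antigen flowed at 500 nM top concentration in 5-fold serial dilutions, GST alone run as nonspecific-binding control, duplicate measurements.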
Procedure: Binding kinetic characterization of the purified antibodies was performed by Carterra using a proprietary array SPR instrument (MX-96) as follows. Briefly, antibodies were prepared by diluting to 5 µg/ml in 10 mM Acetate, pH 4.5 (Carterra), at 150 µL/well and then made an additional dilution at 1:10 from there by titrating 11 µl into 100 µL. […] The chip was activated with 18 mM EDC (Sigma Bioxtra) and 4.5 mM S-NHS (Thermo Fisher) diluted in 100 mM MES, pH 5.5, for 7 minutes, and then antibodies were coupled for 10 minutes at 45 µL/minute. After coupling, the chip was returned to the MX-96 and quenched for 7 minutes using 1 M Ethanolamine pH 8.5 (Carterra).
Printed antibodies were profiled for their ability to bind GST-TMEM106B (truncated) protein (described above). Briefly, GST-TMEM106B (truncated) antigen was diluted to 18 µg/ml (500 nM of 36 kDa fusion protein) by mixing 2.7 µL of 2.0 mg/ml antigen into 298 µL Running buffer (HBS-EP+, Teknova with 1 mg/ml BSA, Sigma), and titrated 50 µl into 200 µl for 5-fold serial dilutions. In addition, binding to GST (Pierce) was assayed under the same conditions to determine the extent of any nonspecific binding of the anti-TMEM106B antibodies to GST portion of the TMEM106B-GST fusion protein. Duplicate measurements for each anti-TMEM106B antibody were taken to ensure reproducibility.
Regarding B7, the koff (commonly a measure of how fast the partners let go of each other) was 8.6e-05 s⁻¹ and 3.5e-05 s⁻¹; the kon (usually the rate constant with which the complex forms) was 29000 M⁻¹ s⁻¹ and 40000 M⁻¹ s⁻¹.

In the case of B2, the Kd (as a rule, a measure of binding affinity in units of concentration) is 22 nM and 28 nM; the koff was 0.00063 s⁻¹ and 0.00097 s⁻¹; the kon was 29000 M⁻¹ s⁻¹ and 35000 M⁻¹ s⁻¹.

Consider B3, for which the Kd was found to be 2.1 nM; the koff was 5.2e-05 s⁻¹ and 5.7e-05 s⁻¹; the association rate constant (kon) is 24000 M⁻¹ s⁻¹ and 27000 M⁻¹ s⁻¹.

In the case of B5, the Kd was 17 nM and 22 nM; the koff is 0.00054 s⁻¹ and 0.0006 s⁻¹; the kon was 32000 M⁻¹ s⁻¹ and 28000 M⁻¹ s⁻¹.

Another test has as its target T1, human TMEM106B. The test can be described thus: FACS A549, 10 ug/ml.
Regarding B6, the MFI is 4040.

Molecule B7 gave an MFI of 6100.

In turn, B1 registered an MFI of 466.

The molecule B2 returned an MFI of 425.

The molecule B3 showed an MFI of 5580.

On to B8, for which the MFI was determined as 4480.

On to B4, for which the MFI is 557.

B5 showed an MFI of 1090.

For another test, the target named is T3, GST (Pierce) (UniProt P08515 1-218 = GST, limits assumed).
T3 construct: control for the GST part of the fusion protein; also called GST protein; Glutathione-S-transferase
The test can be described thus: ELISA, coated GST. (In an ELISA, binding on a coated surface is turned into a signal by an enzyme label.)
Procedure: Briefly, 96-well polystyrene plates were coated with 1-10 µg/ml of recombinant GST-TMEM106B-truncated protein or GST (Pierce) in PBS either at 370 Cfor 1-4 hours or overnight at 4 °C. Coated plates were then blocked with 5% BSA for 1-hour, washed 3×150 µL in TBST (Tris-buffered saline + 0.1% Tween20), and then the antibodies were added at various dilutions (100-1000x) in PBS. After 1-hour incubation (room temperature, with shaking), the plates were washed 3x150 µL in TBST. […] After a final set of washes (3×150µL in TBST), 100 µL of peroxidase substrate was added for 1 minute; the reaction was then quenched with 2N sulfuric acid (100 µL).
As for B7, the binding result was “no binding”.

Regarding B2, the binding result was “no binding”.

Consider B3, for which the binding result is “no binding”.

B4: the binding result is on record as “no binding”.

For B9, the binding result is “no binding”.

Regarding B5, the binding result was “no binding”.

For a further test, the target named is T1, human TMEM106B. The test can be described thus: FACS A549, 1 ug/ml.
B6 displayed an MFI of 3030.

The molecule B7 came in with an MFI of 3930.

In turn, B1 came in with an MFI of 404.

Take B2: the MFI worked out at 379.

Molecule B3 yielded an MFI of 2870.

B8: the MFI turned out to be 2880.

In turn, B4 had an MFI of 409.

Take B5: the MFI was 663.

The next test has as its target T1, human TMEM106B. The test can be described thus: FACS, HEK293 transfectants. The source holds these as a separate data set.
Procedure: (§4) For screening of the hybridoma cell culture supernatants, humanTMEM106B-transfected HEK293 cells were aliquoted in 96-well round bottom plates (2x10^5 cells per well) and incubated with 50 µL of hybridoma cell culture supernatant on ice for 30 minutes. […] Median fluorescence intensity (MFI) of anti-mouse-APC MFI on TMEM106B+ HEK293 cells was calculated for each clone, and those displaying a signal of at least 2-fold over background compared to a secondary-antibody only well were taken forward for further analysis and characterization.
For the molecule B2, the “fold-change over parental HEK293” value came out at 12.6 fold.

Regarding B3, the “fold-change over parental HEK293” value was 9.96 fold.

Take B4: the “fold-change over parental HEK293” value is 8.3 fold.

In the case of B5, the “fold-change over parental HEK293” value turned out to be 37.1 fold.

Another test deals with T4, mouse TMEM106B (mouse, UniProt Q80X71 2-275).
T4 construct: on transiently transfected HEK293 cells, or natively expressed on mouse Neuro2a cells; also called moTMEM106B; murine TMEM106B
The test can be described thus: FACS, HEK293 transfectants.
Procedure: as §4
As for B2, the “fold-change over parental HEK293” value was 6.42 fold.

Take B3: the “fold-change over parental HEK293” value is 18.3 fold.

B4: the “fold-change over parental HEK293” value worked out at 1.42 fold.

For the molecule B5, the “fold-change over parental HEK293” value is 45.9 fold.

The next test concerns the target T5, cynomolgus (cyno) TMEM106B (cynomolgus, UniProt Q9NUM4 2-274 (human entry)).
T5 construct: on transiently transfected HEK293 cells
The test can be described thus: FACS, HEK293 transfectants.
Procedure: as §4
On to B2, for which the “fold-change over parental HEK293” value is 14.3 fold.

Regarding B3, the “fold-change over parental HEK293” value came out at 23.7 fold.

B4: the “fold-change over parental HEK293” value worked out at 17.6 fold.

For the molecule B5, the “fold-change over parental HEK293” value amounted to 65.9 fold.

The target in another test is T4, mouse TMEM106B. The test can be described thus: FACS Neuro2a.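 Further: flow cytometry of cells stained with antibody or hybridoma supernatant (purified antibody at 10 µg/ml) for 1 h on ice, propidium iodide–positive dead cells gated out.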
Procedure: as §1, §2, §3
For B1, the MFI is 202.

B2 displayed an MFI of 385.

In turn, B3 had an MFI of 1040.

With B4, the MFI was found to be 392.

In the case of B5, the MFI came to 604.
